In article doi:10.1101/2025.05.28.656462 (bioRxiv, 2025):

Molecular target: the molecule itself
Assay: SEC

B1: full-length Pseudomonas aeruginosa bacteriophytochrome PaBphP, wild type (FL-PaBphP-D) (natural protein)
chain: MTSITPVTLANCEDEPIHVPGAIQPHGALVTLRADGMVLAASENIQALLGFVASPGSYLTQEQVGPEVLRMLEEGLTGNGPWSNSVETRIGEHLFDVIGHSYKEVFYLEFEIRTADTLSITSFTLNAQRIIAQVQLHNDTASLLSNVTDELRRMTGYDRVMAYRFRHDDSGEVVAESRREDLESYLGQRYPASDIPAQARRLYIQNPIRLIADVAYTPMRVFPALNPETNESFDLSYSVLRSVSPIHCEYLTNMGVRASMSISIVVGGKLWGLFSCHHMSPKLIPYPVRMSFQIFSQVCSAIVERLEQGRIAELLRVSTERRLALARRARDADDLFGALAHPDDGIAALIPCDGALVMLGGRTLSIRGDFERQAGNVLQRLQRDPERDIYHTDNWPQPSEDSPDGGDCCGVLAIRFHRQESGWIFWFRHEEVHRIRWGGKPEKLLTIGPSGPRLTPRGSFEAWEEVVRGHSTPWSETDLAIAEKLRLDLMELCLNHAAEVDRMRQRLIAVLGHDLRNPLQSISMAAALLSSSDTRTTELRQHISASSSRMERLVSQILDMSRLQSGIGLTVNPVDTDVSQLVRQIVCETDVAYPGLVIEIAIDPQVRAVVDPDRYAQVAANLLSNARHHGLPGRPVLVTLTRQGDEVCLSVLNETSGLSEAQLANLFEPFKRESADNQRNRNGLGIGLYISQAIAQAHQGRIDVDCRDDVITFCLRLPVRQAETGSSS
  stoichiometry N: 2
